Experimental data published in article PMC3863973 (Nature Communications, 2013).

B1: FLAG-tagged KaiC-WT (enzyme)
chain: MTSAEMTSPNNNSEHQAIAKMRTMIEGFDDISHGGLPIGRSTLVSGTSGTGKTLFSIQFLYNGIIEFDEPGVFVTFEETPQDIIKNARSFGWDLAKLVDEGKLFILDASPDPEGQEVVGGFDLSALIERINYAIQKYRARRVSIDSVTSVFQQYDASSVVRRELFRLVARLKQIGATTVMTTERIEEYGPIARYGVEEFVSDNVVILRNVLEGERRRRTLEILKLRGTSHMKGEYPFTITDHGINIFPLGAMRLTQRSSNVRVSSGVVRLDEMCGGGFFKDSIILATGATGTGKTLLVSRFVENACANKERAILFAYEESRAQLLRNAYSWGMDFEEMERQNLLKIVCAYPESAGLEDHLQIIKSEINDFKPARIAIDSLSALARGVSNNAFRQFVIGVTGYAKQEEITGLFTNTSDQFMGAHSITDSHISTITDTIILLQYVEIRGEMSRAINVFKMRGSWHDKAIREFMISDKGPDIKDSFRNFERIISGSPTRITVDEKSELSRIVRGVQEKGPES
B2: His-tagged KaiC-AA (enzyme)
chain: MTSAEMTSPNNNSEHQAIAKMRTMIEGFDDISHGGLPIGRSTLVSGTSGTGKTLFSIQFLYNGIIEFDEPGVFVTFEETPQDIIKNARSFGWDLAKLVDEGKLFILDASPDPEGQEVVGGFDLSALIERINYAIQKYRARRVSIDSVTSVFQQYDASSVVRRELFRLVARLKQIGATTVMTTERIEEYGPIARYGVEEFVSDNVVILRNVLEGERRRRTLEILKLRGTSHMKGEYPFTITDHGINIFPLGAMRLTQRSSNVRVSSGVVRLDEMCGGGFFKDSIILATGATGTGKTLLVSRFVENACANKERAILFAYEESRAQLLRNAYSWGMDFEEMERQNLLKIVCAYPESAGLEDHLQIIKSEINDFKPARIAIDSLSALARGVSNNAFRQFVIGVTGYAKQEEITGLFTNTSDQFMGAHSITDSHIAAITDTIILLQYVEIRGEMSRAINVFKMRGSWHDKAIREFMISDKGPDIKDSFRNFERIISGSPTRITVDEKSELSRIVRGVQEKGPES
B3: His-tagged KaiC-AE (enzyme)
chain: MTSAEMTSPNNNSEHQAIAKMRTMIEGFDDISHGGLPIGRSTLVSGTSGTGKTLFSIQFLYNGIIEFDEPGVFVTFEETPQDIIKNARSFGWDLAKLVDEGKLFILDASPDPEGQEVVGGFDLSALIERINYAIQKYRARRVSIDSVTSVFQQYDASSVVRRELFRLVARLKQIGATTVMTTERIEEYGPIARYGVEEFVSDNVVILRNVLEGERRRRTLEILKLRGTSHMKGEYPFTITDHGINIFPLGAMRLTQRSSNVRVSSGVVRLDEMCGGGFFKDSIILATGATGTGKTLLVSRFVENACANKERAILFAYEESRAQLLRNAYSWGMDFEEMERQNLLKIVCAYPESAGLEDHLQIIKSEINDFKPARIAIDSLSALARGVSNNAFRQFVIGVTGYAKQEEITGLFTNTSDQFMGAHSITDSHIAEITDTIILLQYVEIRGEMSRAINVFKMRGSWHDKAIREFMISDKGPDIKDSFRNFERIISGSPTRITVDEKSELSRIVRGVQEKGPES
B4: His-tagged KaiC-DA (enzyme)
chain: MTSAEMTSPNNNSEHQAIAKMRTMIEGFDDISHGGLPIGRSTLVSGTSGTGKTLFSIQFLYNGIIEFDEPGVFVTFEETPQDIIKNARSFGWDLAKLVDEGKLFILDASPDPEGQEVVGGFDLSALIERINYAIQKYRARRVSIDSVTSVFQQYDASSVVRRELFRLVARLKQIGATTVMTTERIEEYGPIARYGVEEFVSDNVVILRNVLEGERRRRTLEILKLRGTSHMKGEYPFTITDHGINIFPLGAMRLTQRSSNVRVSSGVVRLDEMCGGGFFKDSIILATGATGTGKTLLVSRFVENACANKERAILFAYEESRAQLLRNAYSWGMDFEEMERQNLLKIVCAYPESAGLEDHLQIIKSEINDFKPARIAIDSLSALARGVSNNAFRQFVIGVTGYAKQEEITGLFTNTSDQFMGAHSITDSHIDAITDTIILLQYVEIRGEMSRAINVFKMRGSWHDKAIREFMISDKGPDIKDSFRNFERIISGSPTRITVDEKSELSRIVRGVQEKGPES

Legend:
[1] = molecular target: mutant KaiC (His-tagged KaiC-AA, -DE, -DA or -AE, as a group); test: pull-down
His-tagged KaiC-AA = molecular target: B2; test: pull-down
His-tagged KaiC-AE = molecular target: B3; test: pull-down
His-tagged KaiC-DA = molecular target: B4; test: pull-down
His-tagged KaiC-WT = molecular target: T1, His-tagged KaiC-WT (Synechococcus elongatus PCC 7942, UniProt Q79PF4 1-519); test: pull-down
T1 sequence: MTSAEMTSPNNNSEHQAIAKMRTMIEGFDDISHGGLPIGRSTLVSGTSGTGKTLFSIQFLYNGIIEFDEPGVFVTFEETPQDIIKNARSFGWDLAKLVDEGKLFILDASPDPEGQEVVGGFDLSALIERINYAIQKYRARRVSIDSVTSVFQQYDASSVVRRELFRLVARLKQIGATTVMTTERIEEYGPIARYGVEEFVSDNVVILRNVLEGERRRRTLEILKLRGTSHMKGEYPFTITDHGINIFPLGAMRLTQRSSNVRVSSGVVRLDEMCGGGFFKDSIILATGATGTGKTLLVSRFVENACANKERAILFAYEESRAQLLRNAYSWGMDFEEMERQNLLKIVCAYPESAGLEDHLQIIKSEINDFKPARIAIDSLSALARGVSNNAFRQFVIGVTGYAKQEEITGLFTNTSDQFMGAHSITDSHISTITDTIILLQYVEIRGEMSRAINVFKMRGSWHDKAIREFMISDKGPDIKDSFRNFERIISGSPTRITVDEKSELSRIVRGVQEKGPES

FLAG-tagged KaiC-E318Q = molecular target: T2, FLAG-tagged KaiC-E318Q (Synechococcus elongatus PCC 7942, UniProt Q79PF4 1-519, E318Q); test: co-IP
T2 sequence: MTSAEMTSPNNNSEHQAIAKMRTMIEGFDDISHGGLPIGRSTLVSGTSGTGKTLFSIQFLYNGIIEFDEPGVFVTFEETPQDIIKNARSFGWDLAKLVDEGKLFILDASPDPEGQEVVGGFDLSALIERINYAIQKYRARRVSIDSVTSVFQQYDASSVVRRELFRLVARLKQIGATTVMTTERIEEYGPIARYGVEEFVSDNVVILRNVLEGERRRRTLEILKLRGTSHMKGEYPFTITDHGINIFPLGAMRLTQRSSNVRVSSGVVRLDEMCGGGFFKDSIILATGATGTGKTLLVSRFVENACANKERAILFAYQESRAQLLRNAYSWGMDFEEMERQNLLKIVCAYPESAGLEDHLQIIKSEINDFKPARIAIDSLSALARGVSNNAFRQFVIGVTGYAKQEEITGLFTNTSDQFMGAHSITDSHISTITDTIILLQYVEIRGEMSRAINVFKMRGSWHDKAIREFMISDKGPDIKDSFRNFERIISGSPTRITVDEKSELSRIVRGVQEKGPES

FLAG-tagged KaiC-WT = molecular target: B1; test: co-IP

For B1, the stoichiometry N [1] was 4 to 5, the binding result (His-tagged KaiC-AA) was “binds” and the binding result (His-tagged KaiC-AE) was “binds”. B1: binds (His-tagged KaiC-DA); binds (His-tagged KaiC-WT).

With B2 the “stoichiometry N” value (FLAG-tagged KaiC-E318Q) was 1.

B3 was tested, and the “stoichiometry N” value (FLAG-tagged KaiC-WT) was roughly 1.

In the case of B4, the “stoichiometry N” value (FLAG-tagged KaiC-WT) is reported as roughly 1.
